# Experimental data from PMC8506132, “Structural and Kinetic Insights Into the Molecular Basis of Salt Tolerance of the Short-Chain Glucose-6-Phosphate Dehydrogenase From Haloferax volcanii” (Frontiers in Microbiology, 2021).
# B1: HvG6PDH (Haloferax volcanii DS2) (protein)
# chain: MDQPVLLTGAGGRVGQAILGHIGDAYDWRLLDREPLSDEKIPDSVDSTEVYVADVTDETAVRNAMDGVHAVIHLAGDPRPEAPWDSVLRNNIDGTQQMFDAAVDVGVEKFAFASSNHAVGAYETTDRTPDMYRPHHEFRLDGTELPRPSNLYGVSKAAGETLGRYYHDHHDISVVNVRIGNLTQHHPPKEYERGQAMWLSYRDCGHLFECCIEADYDYEIVYGISDNDRKYYSIDRARAVLGYDPQDNSAEFTFEGEPLDEA
# notes: modelled as dimer
# Substrate: NC(=O)c1ccc[n+]([C@@H]2O[C@H](COP(=O)(O)OP(=O)(O)OC[C@H]3O[C@@H](n4cnc5c(N)ncnc54)[C@H](O)[C@@H]3O)[C@@H](O)[C@H]2O)c1
# Experiment: purified protein
# Assay type: biochemical, Haloferax volcanii
# Details: 2.0 M KCl, G6P co-substrate, pH 7.5, 25 °C, varied: cofactor
protein,measurement,value
B1,Km,280 ± 68 µM
same,kcat,48.5 ± 4.3 s⁻¹
